From patent publication US20240150474A1 (Regeneron, published 2024)
Substitutions are numbered along the chain they refer to.

T1: dimeric mouse ACVRL1 (mouse, UniProt Q61288 23-119, limits assumed)
T1 construct: Construct and dimerising part not described; also called Mouse Receptor ACVRL1
T1 sequence (looked up): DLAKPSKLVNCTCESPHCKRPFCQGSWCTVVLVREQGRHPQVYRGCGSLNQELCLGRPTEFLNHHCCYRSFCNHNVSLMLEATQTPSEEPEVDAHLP

T2: dimeric human BMPR1B (human, UniProt O00238 14-126, limits assumed)
T2 construct: Construct and dimerising part not described; also called Human Receptor BMPR1B
T2 sequence (looked up): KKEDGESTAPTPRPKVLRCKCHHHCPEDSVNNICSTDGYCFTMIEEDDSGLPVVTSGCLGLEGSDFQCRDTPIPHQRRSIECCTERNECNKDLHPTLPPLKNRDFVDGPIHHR

T3: dimeric mouse BMPR1B (mouse, UniProt P36898 14-126, limits assumed)
T3 construct: Construct and dimerising part not described; also called Mouse Receptor BMPR1B
T3 sequence (looked up): T2 sequence (looked up) with V16I, L51M, N102D, R113K

T4: mouse ACVR1 extracellular domain expressed with a C-terminal mouse IgG2a Fc tag (mouse, UniProt P37172 21-123)
T4 construct: extracellular domain; Bought from R&D Systems; also called mACVR1-mFc; R&D System 6506-RA-100; not shown: mouse IgG2a Fc tag
T4 sequence (looked up): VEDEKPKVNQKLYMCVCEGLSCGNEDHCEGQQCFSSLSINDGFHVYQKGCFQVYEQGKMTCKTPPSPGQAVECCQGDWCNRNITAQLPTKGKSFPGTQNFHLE

B1: REGN 5167 (antibody, human IgG4 S228P, kappa, V domains shown)
VH: QLQLQESGPGLVKPSETLSLTCTVSGGSITSSSYYWAWIRQPPGKGLEWIGKIYYSGSTHYNPSLKSRVTISVDTSKNQFSLKLSSVTAADTAVYYCARVGGHGYGDSAGLAFDIWGQGTMVTVSS
VL: EIVLTQSPGTLSLSPGERATLSCRASQSVSSAFLAWYQQKPGQAPRLLIYGASYRHTGIPDRFSGSGSGTDFTLTISRLEPEDFAVYYCQHYGVGPRTFGGGTKVEIKR
notes: also called REGN 5167-L1
B2: REGN 5168 (antibody, human IgG4 S228P, kappa, V domains shown)
VH: QVQLVQSGAEVKEPGASVKVSCKASGYTFAEYYMHWVRQAPGQGLEWMGAINPSGSHTSYAQKFQGRVTMTRDTSTSTVYMELSSLRSEDTAVYYCARSISGKRGGDYYGMDVWGQGTTVTVSS
VL: DIQMTQSPSTLSASVGDRVTITCRASQSISSWLAWYQQKPGKAPKLLIYKASSLESGVPSRFSGSGSGTEFTLTISSLQPDDFATYYCQQYSIFPFTFGGGTKVEIKR
notes: also called REGN 5168-L1
B3: REGN 5166 (antibody, human IgG4 S228P, kappa, V domains shown)
VH: QVQLVESGGGVVQPGRSLRLSCAASGFTFSAYWMHWVRQAPGKGLEWVAVISYDGSNKYYADSVKGRFTISRDHSKNTLYLQMNSLRAEDTAVYYCAKGDAYDSWRILLGGDYYGMDVWGQGTTVTVSS
VL: EIVLTQSPGTLSLSPGERATLSCRASQSVSSSYLAWYQQKPGQAPRPLIYGASSRATGIPDRFSGSGSGTDFTLTISRLEPEDFAVYYCQQGGDAPPYTFGGGTKVEIKR
notes: also called REGN 5166-L1

These binders were tested against T5, dimeric human BMPR1A (human, UniProt P36894 24-152, limits assumed) (assay: SPR Biacore T200, mAb captured by anti-human Fab, dimeric receptor injected, 25C).
T5 construct: Construct and dimerising part not described; also called Human Receptor BMPR1A
T5 sequence (P36894 24-152 limits assumed): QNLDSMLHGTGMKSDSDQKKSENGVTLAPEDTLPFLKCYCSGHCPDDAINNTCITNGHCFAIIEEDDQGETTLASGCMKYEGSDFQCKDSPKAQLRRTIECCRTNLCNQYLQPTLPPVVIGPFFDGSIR
Protocol: (§1) ACVR1 mAbs were tested for cross-reactivity to a panel of bone morphogenic protein type 1 receptors including human and mouse ACVR1, BMPR1A, and BMPR1B, as well as ACVRL1 on a Biacore T200 as follows. In order to measure the specificity of ACVR1 mAbs, ACVR1 mAbs were captured with anti-human Fab immobilized on a CM5 chip. 100 nM or 10 nM of dimeric human or mouse ACVR1, ACVRL1, BMPR1A or BMPR1B were injected at 30 μL/min for 2 min (duplicate injections) and the experiment was performed at 25° C. Binding of different receptors to the captured mAb was determined using Scrubber 2.0c software.
B1: no binding (tested: 100 nM).
B2: no binding (tested: 100 nM).
B3: no binding (tested: 100 nM).

Each binder was assayed against T1, dimeric mouse ACVRL1 in the same assay as above.
Protocol: as §1
B1: no binding (tested: 100 nM).
B2: no binding (tested: 100 nM).
B3: no binding (tested: 100 nM).

These binders were tested against T6, dimeric human ACVRL1 (human, UniProt P37023 22-118, limits assumed) in the same assay as above.
T6 construct: Construct and dimerising part not described; also called Human Receptor ACVRL1
T6 sequence (P37023 22-118 limits assumed): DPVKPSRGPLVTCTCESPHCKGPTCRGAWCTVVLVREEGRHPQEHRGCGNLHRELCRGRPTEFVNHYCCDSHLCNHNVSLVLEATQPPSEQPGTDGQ
Protocol: as §1
B1: no binding (tested: 100 nM).
B2: no binding (tested: 100 nM).
B3: no binding (tested: 100 nM).

What follows are binders tested against T2, dimeric human BMPR1B in the same assay as above.
Protocol: as §1
B1: no binding (tested: 100 nM).
B2: no binding (tested: 100 nM).
B3: no binding (tested: 100 nM).

These binders were tested against T3, dimeric mouse BMPR1B in the same assay as above.
Protocol: as §1
B1: no binding (tested: 100 nM).
B2: no binding (tested: 100 nM).
B3: no binding (tested: 100 nM).

Each binder was assayed against T7, dimeric mouse BMPR1A (mouse, UniProt P36895 24-152, limits assumed) in the same assay as above.
T7 construct: Construct and dimerising part not described; also called Mouse Receptor BMPR1A
T7 sequence (P36895 24-152 limits assumed): as the sequence (P36894 24-152 limits assumed) above, with S16L, S21P, A74T counted along it
Protocol: as §1
B1: no binding (tested: 100 nM).
B2: no binding (tested: 100 nM).
B3: no binding (tested: 100 nM).

The binders below were run against T4, mouse ACVR1 extracellular domain … (assay: SPR Biacore T200, mAb captured by anti-human Fc, mACVR1-mFc injected, 37C).
Protocol: Equilibrium dissociation constants (KD) for ACVR1 binding to purified anti-ACVR1 monoclonal antibodies were determined using a real-time surface plasmon resonance (SPR) based Biacore T200 biosensor. All binding studies were performed in 10 mM HEPES, 150 mM NaCl, 3 mM EDTA, and 0.05% v/v surfactant Tween-20, pH 7.4 (HBS-EP) running buffer at […]. The Biacore CM5 sensor surface was first derivatized by amine coupling with a monoclonal mouse anti-human Fc antibody (REGN2567) to capture anti-ACVR1 monoclonal antibodies. Different concentrations of ACVR1 reagents, human ACVR1 extracellular domain expressed with a C-terminal myc-myc-hexahistidine tag (hACVR1-mmh; REGN3111, SEQ ID NO: 63), mouse ACVR1 extracellular domain expressed with a C-terminal myc-myc-hexahistidine tag (mACVR1-mmh; REGN3407, SEQ ID NO: 65), human ACVR1 extracellular domain expressed with a C-terminal mouse IgG2a Fc tag (hACVR1-mFc; REGN3112, SEQ ID NO: 64); and mouse ACVR1 extracellular domain expressed with a C-terminal mouse IgG2a Fc tag (mACVR1-mFc, R&D system), at concentrations ranging from 0.41 nM to 100 nM in a series of 3-fold dilutions prepared in HBS-EP running buffer were injected at a flow rate of 50 μL/min for 1.5 minutes. The dissociation of different ACVR1 reagents bound to anti-ACVR1 monoclonal antibodies was monitored for 20 minutes in HBS-EP running buffer. At the end of each cycle, the anti-ACVR1 monoclonal antibodies capture surface was regenerated using a 12 sec injection of 20 mM H3PO4. The association rate (ka) and dissociation rate (kd) were determined by fitting the real-time binding sensorgrams to a 1:1 binding model with mass transport limitation using Scrubber 2.0c curve-fitting software. Binding dissociation equilibrium constant (KD) and dissociative half-life (t½) were calculated from the kinetic rates as: […]
Binding kinetics parameters for different ACVR1 reagents to anti-ACVR1 monoclonal antibodies of the invention at 37° C. are shown in Table 5 through Table 8.
With B1 the “100 nM Ag Bound (RU)” value was 135 RU, the Kd was 0.0192 nM and the koff was 3.63e-05 s⁻¹. The kon was 1.89e+06 M⁻¹ s⁻¹ and the t½ was 5.3 h.
With B2 the “100 nM Ag Bound (RU)” value was 135 RU, the Kd was 0.0362 nM and the koff was 0.000111 s⁻¹. For the same binder, the kon was 3.06e+06 M⁻¹ s⁻¹ and the t½ was 1.73 h.
In the case of B3, the “100 nM Ag Bound (RU)” value is reported as 134 RU, the Kd is reported as 0.0179 nM and the koff is reported as 3.63e-05 s⁻¹. For the same binder, the kon was 2.03e+06 M⁻¹ s⁻¹ and the t½ was 5.3 h.
